Assay results taken from publication PMC3285688, “Active Site Mutations Change the Cleavage Specificity of Neprilysin” (PLoS ONE, 2012).
Positions count from the first letter of the chain named. Names and notes keep the numbering of the source.

B1: NEP^F563M: neprilysin active site mutant, Phe563 to methionine (protein, UniProt P08473 2-750, looked up, variant F563M)
Neprilysin: GKSESQMDITDINTPKPKKKQRWTPLEISLSVLVLLLTIIAVTMIALYATYDDGICKSSDCIKSAARLIQNMDATTEPCTDFFKYACGGWLKRNVIPETSSRYGNFDILRDELEVVLKDVLQEPKTEDIVAVQKAKALYRSCINESAIDSRGGEPLLKLLPDIYGWPVATENWEQKYGASWTAEKAIAQLNSKYGKKVLINLFVGTDDKNSVNHVIHIDQPRLGLPSRDYYECTGIYKEACTAYVDFMISVARLIRQEERLPIDENQLALEMNKVMELEKEIANATAKPEDRNDPMLLYNKMTLAQIQNNFSLEINGKPFSWLNFTNEIMSTVNISITNEEDVVVYAPEYLTKLKPILTKYSARDLQNLMSWRFIMDLVSSLSRTYKESRNAFRKALYGTTSETATWRRCANYVNGNMENAVGRLYVEAAFAGESKHVVEDLIAQIREVFIQTLDDLTWMDAETKKRAEEKALAIKERIGYPDDIVSNDNKLNNEYLELNYKEDEYFENIIQNLKFSQSKQLKKLREKVDKDEWISGAAVVNAFYSSGRNQIVFPAGILQPPMFSAQQSNSLNYGGIGMVIGHEITHGFDDNGRNFNKDGDLVDWWTQQSASNFKEQSQCMVYQYGNFSWDLAGGQHLNGINTLGENIADNGGLGQAYRAYQNYIKKNGEEKLLPGLDLNHKQLFFLNFAQVWCGTYRPEYAVNSIKTDVHSPGNFRIIGTLQNSAEFSEAFHCRKNSYMNPEKKCRVW
B2: NEP^F563I: neprilysin active site mutant, Phe563 to isoleucine (protein, UniProt P08473 2-750, looked up, variant F563I)
Neprilysin: B1 Neprilysin with M563I

Legend:
Type in all cases: biochemical
insulin B chain [1] = assay: Insulin B chain as alternate substrate (competitive) inhibitor of Glut-Ala-Ala-Phe-MNA hydrolysis (Dixon plot); conditions: insulin B chain 1 to 40 µM as competitive inhibitor of Glut-Ala-Ala-Phe-MNA hydrolysis by the enzyme form, 37°C, 20 mM MES, pH 6.5, ID50 converted to Ki
Procedure: (§1) Kinetic constants for NEP and its mutants were obtained using the assay conditions noted above, but with Glut-Ala-Ala-Phe-MNA varied from 20 to 500 µM. Typically 12 data points were obtained. The data were fit to the Michaelis-Menten equation using Prism4 software. The Ki for insulin B chain was obtained by measuring the rate of Glut-Ala-Ala-Phe-MNA hydrolysis in the presence of varying concentrations of insulin B chain from 1 to 40 µM. Data were fit to a Dixon plot (1/rate versus [insulin B chain]) using Prism4 software and the ID50 obtained as the –x intercept, where ID50 corresponds to the concentration of insulin producing 50% inhibition. The actual Ki was obtained from the equation: ID50 = Ki (1+ [Glut-Ala-Ala-Phe-MNA]/KmGlut-Ala-Ala-Phe-MNA), [33].

insulin B chain [2] = assay: Rate of insulin B chain hydrolysis (HPLC); conditions: 15 µM insulin B chain, 37°C, 20 mM MES buffer, pH 6.5; disappearance of substrate by HPLC; at least triplicate
Procedure: (§2) Cleavage of physiological peptides was measured via reverse phase high performance liquid chromatography (HPLC) following incubation of the purified NEP or its mutants with 15 µM insulin B chain (Sigma Aldrich), 24 µM Aß1–40 (Anaspec), or 64 µM leu-ENK (Sigma) in 100 µL of 20 mM MES, pH 6.5, at 37°C. Reactions were run in triplicate. HPLC was carried out in a Vydac C4 column using a linear gradient from 0.1% trifluoroacetic acid (TFA) in 95% water, 5% acetonitrile to 0.1% TFA in 50% acetonitrile/water at a flow rate of 1 mL/min. Peptides and hydrolysis products were detected at 214 nm and quantified by measuring peak areas. Peptides obtained from HPLC were analyzed on an Applied Biosystems 4800 MALDI TOF/TOF Proteomics Analyzer at the University of Kentucky Proteomics core. This facility is supported in part by grant P20RR020171 from the NIH/NCRR.
(§3) Statistical analysis comparing wild-type NEP and its mutants was performed with Prism 4 software using a two-tailed paired t-test with a 95% confidence interval.

insulin B chain [3] = assay: Dual substrate assay: insulin B chain hydrolysis in presence of leu-ENK; conditions: 15 µM insulin B chain and 64 µM leu-ENK together, 37°C, 20 mM MES buffer, pH 6.5; for Insulin B Chain hydrolysis, activity relative to the uninhibited value: numbers in parenthesis
Procedure: (§4) The rate of cleavage of a substrate mixture is determined by both the kcat for that substrate as well by the affinity for the substrate. […] This is expected, given that each peptide acts as a competitive inhibitor of the other. […] That is the ratio for leu-ENK/insulin B chain cleavage is 3 for NEP^S546E compared to 6 for wild-type NEP.
as §2

leu-ENK [4] = assay: Dual substrate assay: leu-ENK hydrolysis in presence of insulin B chain; conditions: 15 µM insulin B chain and 64 µM leu-ENK together, 37°C, 20 mM MES buffer, pH 6.5; for leu-ENK hydrolysis, activity relative to the uninhibited value: numbers in parenthesis
Procedure: as §4, §2

[5] = Hydrolysis of synthetic substrate Glut-Ala-Ala-Phe-MNA by NEP and mutants (fluorogenic); conditions: 37°C, 20 mM MES buffer, pH 6.5; for Specific Activity (Glut-Ala-Ala-Phe-MNA cleavage): 100 µM Glut-Ala-Ala-Phe-MNA, fluorescence ex 340 nm, em 425 nm; for Km: Glut-Ala-Ala-Phe-MNA 20 to 500 µM, Michaelis-Menten fit
Procedure: Reactions of 400 µl contained 100 µM Glut-Ala-Ala-Phe-MNA, 1 µg of aminopeptidase and 15 to 100 ng of NEP or mutant NEP depending on their activity in 20 mM MES buffer, pH 6.5. Activity was monitored with a Spectra Max Gemini XS plate reader using an excitation wavelength of 340 nm and an emission wavelength of 425 nm.
as §1

[6] = system: leu-ENK and insulin B chain; assay: Dual substrate assay: substrate preference leu-ENK versus insulin B chain; conditions: for Substrate preference leu-ENK/insulin B chain (in words): dual substrate assay, versus wild-type; for Ratio leu-ENK insulin B chain: ratio of rates, 15 µM insulin B chain and 64 µM leu-ENK together
Procedure: as §4, §2

Aß1–40 = assay: Rate of Aß1–40 hydrolysis (HPLC); conditions: 24 µM Aß1–40, 37°C, 20 mM MES buffer, pH 6.5; disappearance of substrate by HPLC; at least triplicate
Procedure: as §2, §3

leu-ENK [7] = assay: Rate of leu-ENK hydrolysis (HPLC); conditions: 64 µM leu-ENK, 37°C, 20 mM MES buffer, pH 6.5; disappearance of substrate by HPLC; at least triplicate
Procedure: as §2, §3

Molecule	Ki (insulin B chain [1]) [nM]	Rate of hydrolysis of Insulin B Chain (insulin B chain [2]) [pmol/min/ng]	Insulin B Chain hydrolysis rate, dual substrate assay (insulin B chain [3]) [pmol/min/ng]	Insulin B Chain hydrolysis, activity relative to the uninhibited value (insulin B chain [3])	leu-ENK hydrolysis rate, dual substrate assay (leu-ENK [4]) [pmol/min/ng]	leu-ENK hydrolysis, activity relative to the uninhibited value (leu-ENK [4])	Specific Activity (Glut-Ala-Ala-Phe-MNA cleavage) [5] [pmol/min/ng]	Km [5] [µM]	Substrate preference leu-ENK/insulin B chain (in words) [6]	Ratio leu-ENK insulin B chain [6]	Rate of hydrolysis of Aß1–40 (Aß1–40) [fmol/min/ng]	Rate of hydrolysis of leu-ENK (leu-ENK [7]) [pmol/min/ng]
B1	1200 ± 100	0.21 ± 0.01	0.11 ± 0.02	0.52	0.69 ± 0.11	0.57	19.2 ± 0.4	87 ± 8	no change in overall substrate preference	6.3	85 ± 3	1.21 ± 0.22
B2	2500 ± 900	0.13 ± 0.02	0.02 ± 0.01	0.15	0.62 ± 0.03	0.58	17.7 ± 0.6	83 ± 4	shift in substrate preference toward leu-ENK	31.0	43 ± 1	1.06 ± 0.17
